Where a chain is given by its changes, count along the chain named.

Data on 15 molecules can be found in patent US20170240635A1 (AGENCY FOR SCIENCE TECHNOLOGY AND RESEARCH, published 2017).

The target of test [1] is T1, human LAG-3 coupled to human Fc (human, UniProt P18627 23-450, limits assumed).
T1 construct: ELISA coating antigen; not shown: human Fc
T1 sequence (looked up): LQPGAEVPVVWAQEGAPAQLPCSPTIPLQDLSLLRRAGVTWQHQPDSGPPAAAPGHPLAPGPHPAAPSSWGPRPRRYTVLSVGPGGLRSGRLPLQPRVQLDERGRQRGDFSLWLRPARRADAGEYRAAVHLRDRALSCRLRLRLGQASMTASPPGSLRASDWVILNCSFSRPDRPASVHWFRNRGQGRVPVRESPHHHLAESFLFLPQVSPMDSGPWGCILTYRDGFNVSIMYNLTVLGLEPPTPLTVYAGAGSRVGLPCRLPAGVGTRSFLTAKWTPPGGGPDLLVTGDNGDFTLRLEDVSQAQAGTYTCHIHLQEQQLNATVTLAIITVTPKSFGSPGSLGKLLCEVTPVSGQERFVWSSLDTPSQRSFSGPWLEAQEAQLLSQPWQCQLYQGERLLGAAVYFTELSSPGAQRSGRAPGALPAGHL
The test can be described thus: ELISA; antigen coated 350 ng/well, goat anti-human Fab-HRP, absorbance 450-670 nm. The method, then: (§1) Anti-PD-1 antibodies were tested in an ELISA assay for their ability to bind to other members of the CD28 family.
(§2) Briefly, ELISA plates were coated with 350 ng/well of one of the following antigens coupled to human Fc in carbonate buffer: human PD-1, human PD-L1, human TIM-3, human LAG-3, human ICOS, human CTLA4, human BTLA, human CD28, mouse TIM-3, or rhesus PD-1. The plate was then blocked with a solution of casein. After extensive washes in PBS Tween-20, antibodies were added into the ELISA wells in the presence of 7% milk in PBS. After 90 minutes at room temperature under agitation and extensive washes, a goat anti-human Fab antibody coupled to HRP was added. One hour later, plates were washed and TMB substrate added. The reaction was stopped with 1M HCl and optical density measured at 450 nm with a reference at 670 nm.

In another test the target is T2, hCTLA4-Fc (human, UniProt P16410).
T2 construct: also called human CTLA-4; human CTLA4
Described as above. The method, then: as §1, §2

Test [2] concerns the target T3, human CD28 coupled to human Fc (human, UniProt P10747 19-152, limits assumed).
T3 construct: ELISA coating antigen; not shown: human Fc
Described as above. As for the experimental part: as §1, §2

A further test deals with T4, hICOS-Fc (human, UniProt Q9Y6W8).
T4 construct: also called human ICOS
T4 sequence (antigen, looked up): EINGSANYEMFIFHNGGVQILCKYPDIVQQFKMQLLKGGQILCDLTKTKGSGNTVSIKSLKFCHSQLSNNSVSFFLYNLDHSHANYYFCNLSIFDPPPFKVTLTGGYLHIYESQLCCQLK
Described as above. The method, then:
as §1, §2

Test [3] deals with T5, human TIM-3 coupled to human Fc (human, UniProt Q8TDQ0 22-200, limits assumed).
T5 construct: not shown: human Fc
The description is as above. The method, then: as §1, §2

Test [4] has as its target T6, human BTLA coupled to human Fc (human, UniProt Q7Z6A9 31-150, limits assumed).
T6 construct: ELISA coating antigen; not shown: human Fc
The description is as above. As for the experimental part: as §1, §2

For another test, the target named is T7, mTim3-Fc (mouse, UniProt Q8VIM0).
T7 construct: also called mouse TIM-3
The test is described as above. The method, then:
as §1, §2

The target in test [5] is T8, human PD-L1 coupled to human Fc (human, UniProt Q9NZQ7 19-239, limits assumed).
T8 construct: ELISA coating antigen; not shown: human Fc
Described as above. The method, then:
as §1, §2

Test [6] addresses T9, human PD-1 coupled to human Fc (human, UniProt Q15116 25-167, limits assumed).
T9 construct: also called human-PD-1 coupled to Fc; not shown: human Fc
Kind of test: SPR (ProteOn XPR36); human PD-1-Fc immobilised, crude Fab extract flown over. The method, then: Briefly, human or mouse PD-1 coupled to human Fc was immobilised on a sensor chip compatible with the Proteon XPR36 bioanalyser (Biorad). Crude Fab extracts (or the control antibodies) were then flown onto the chip and the association/dissociation of each candidate Fab was then recorded and analysed, the affinity (KD) was calculated.

Test [7] deals with T10, PD-1 on exhausted human T cells (human, UniProt Q15116 25-288).
T10 construct: whole, on cells; T cells exhausted by 7 days of culture with allogeneic monocyte-derived dendritic cells
Kind of test: flow cytometry (MFI); IgG4 on human T cells activated 7 days with allogeneic DCs, fluorescent secondary antibody. The method, then:
50,000 T cells isolated from a healthy donor were incubated in the presence of 5,000 monocyte-derived DCs from another donor for 7 days at 37° C. Antibodies, expressed as IgG4, were incubated with such activated T cells for 30 minutes in PBS. After a wash in PBS, a fluorescent labelled secondary antibody was added for 30 minutes and then washed in PBS. Cells were resuspended in FACS buffer and binding of the antibody to the cells was monitored by flow cytometry (FIGS. 6 and 7).

T9 sequence (Q15116 25-167 limits assumed): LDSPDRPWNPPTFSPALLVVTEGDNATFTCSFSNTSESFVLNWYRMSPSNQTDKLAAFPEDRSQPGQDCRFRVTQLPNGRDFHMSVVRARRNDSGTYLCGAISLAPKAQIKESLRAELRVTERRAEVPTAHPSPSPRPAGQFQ
T10 sequence (Q15116 25-288): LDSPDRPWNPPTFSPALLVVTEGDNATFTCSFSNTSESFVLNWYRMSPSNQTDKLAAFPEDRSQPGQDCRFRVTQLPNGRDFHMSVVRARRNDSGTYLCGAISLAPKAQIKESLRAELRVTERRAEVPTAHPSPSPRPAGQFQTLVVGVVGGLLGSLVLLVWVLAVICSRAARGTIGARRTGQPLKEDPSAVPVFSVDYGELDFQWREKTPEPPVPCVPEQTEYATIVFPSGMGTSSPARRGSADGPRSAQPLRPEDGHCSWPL
T8 sequence (Q9NZQ7 19-239 limits assumed): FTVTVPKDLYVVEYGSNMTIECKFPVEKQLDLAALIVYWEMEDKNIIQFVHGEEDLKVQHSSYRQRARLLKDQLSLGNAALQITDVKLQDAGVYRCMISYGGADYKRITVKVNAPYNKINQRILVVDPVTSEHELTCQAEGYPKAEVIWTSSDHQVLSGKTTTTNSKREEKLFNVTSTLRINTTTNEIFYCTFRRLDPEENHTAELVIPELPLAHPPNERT
T2 sequence (P16410 37-162 limits assumed): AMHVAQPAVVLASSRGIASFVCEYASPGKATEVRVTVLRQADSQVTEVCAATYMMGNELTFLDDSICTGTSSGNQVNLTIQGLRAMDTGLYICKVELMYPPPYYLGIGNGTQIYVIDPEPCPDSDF
T6 sequence (Q7Z6A9 31-150 limits assumed): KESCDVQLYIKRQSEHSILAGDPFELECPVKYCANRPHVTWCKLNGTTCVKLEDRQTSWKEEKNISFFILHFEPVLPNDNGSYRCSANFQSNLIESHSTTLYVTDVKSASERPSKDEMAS
T7 sequence (Q8VIM0 20-191 limits assumed): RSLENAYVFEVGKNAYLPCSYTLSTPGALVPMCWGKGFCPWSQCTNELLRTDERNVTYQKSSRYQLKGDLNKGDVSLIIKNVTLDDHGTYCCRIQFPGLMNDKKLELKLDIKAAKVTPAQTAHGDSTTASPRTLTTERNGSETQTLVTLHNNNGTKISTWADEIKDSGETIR

B1: anti-PD-1 antibody clone G2 (Fab) (Fab, V domains shown)
VH: QVQLVESGGGVVQPGRSLRLSCAASGFTFSSYGMHWVRQAPGKGLEWVAVISYDGSNKYYADSVKGRFTISRDNSKNTLYLQMNSLRAEDTAVYYCASDLGAGPYYYGMDVWGQGTTVTVSS
VL: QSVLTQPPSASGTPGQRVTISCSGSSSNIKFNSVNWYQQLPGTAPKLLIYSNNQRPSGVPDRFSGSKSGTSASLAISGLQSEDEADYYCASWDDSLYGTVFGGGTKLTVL
notes: Crude Fab extract in SPR
Consider B1, for which the binding result (in [1]; in the test with hCTLA4-Fc; in [2]; with hICOS-Fc; in [3]; in test [4]) was “no binding (tested: not given)” throughout. Further, the binding result (with mTim3-Fc; in test [5]) was “no binding (tested: not given)” throughout. Binding in test [6] was put at a Kd of 0.1 nM.

B2: G2 (antibody, IgG4, V domains shown)
VH: B1 VH
VL: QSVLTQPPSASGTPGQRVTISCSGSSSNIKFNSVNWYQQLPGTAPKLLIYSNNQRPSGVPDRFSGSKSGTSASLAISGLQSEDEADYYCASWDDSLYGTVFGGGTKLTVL
notes: also called anti-PD-1 antibody clone G2 (human IgG4)
As for B2, the EC50 in test [7] was determined as 0.78 nM.

B3: H4 (antibody, IgG4, V domains shown)
VH: B1 VH with A102S, P104Y, Y106L
VL: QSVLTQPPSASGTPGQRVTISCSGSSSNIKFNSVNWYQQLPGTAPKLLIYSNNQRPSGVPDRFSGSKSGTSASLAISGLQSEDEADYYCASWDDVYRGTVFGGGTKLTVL
notes: also called anti-PD-1 antibody clone H4 (human IgG4)
As to B3, in test [7], the EC50 came to 0.189 nM.

B4: anti-PD-1 antibody clone A10 (Fab) (Fab, V domains shown)
VH: B1 VH with E6Q, M109K
VL: LPVLTQPPSASGTPGQRVTISCSGSSSNIKFNSVNWYQQLPGTAPKLLIYSNNQRPSGVPDRFSGSKSGTSASLAISGLQSEDEADYFCASWDDYYYGTIFGGGTKLTVL
notes: Crude Fab extract in SPR
For B4, the binding result (in test [1]; with hCTLA4-Fc; in test [2]; in the test with hICOS-Fc; in test [3]; in [4]) was “no binding (tested: not given)” throughout. The binding result (with mTim3-Fc; in test [5]) was “no binding (tested: not given)” in each case. In [6], this molecule registered a Kd of 0.08 nM.

B5: H9 (antibody, IgG4, V domains shown)
VH: B1 VH
VL: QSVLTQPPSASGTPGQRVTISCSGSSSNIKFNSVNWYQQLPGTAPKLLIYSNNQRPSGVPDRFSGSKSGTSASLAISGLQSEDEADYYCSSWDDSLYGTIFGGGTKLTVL
notes: also called anti-PD-1 antibody clone H9 (human IgG4)
For B5, it took 0.375 nM to reach a half-maximal effect in test [7] (EC50).

B6: C4 (antibody, IgG4, V domains shown)
VH: B1 VH with M109L
VL: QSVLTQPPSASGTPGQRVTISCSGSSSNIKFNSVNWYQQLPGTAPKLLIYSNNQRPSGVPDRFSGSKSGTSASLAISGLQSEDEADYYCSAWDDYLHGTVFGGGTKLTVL
notes: also called anti-PD-1 antibody clone C4 (human IgG4)
With B6, in test [7], the response was half-maximal at 0.281 nM (EC50).

B7: G10 (antibody, IgG4, V domains shown)
VH: B1 VH with L100Y
VL: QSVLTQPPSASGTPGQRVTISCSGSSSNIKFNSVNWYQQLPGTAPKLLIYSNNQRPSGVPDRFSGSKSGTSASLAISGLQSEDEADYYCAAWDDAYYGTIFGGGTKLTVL
notes: also called anti-PD-1 antibody clone G10 (human IgG4)
Molecule B7 came in with an EC50 in test [7] of 0.532 nM.

B8: G1 (antibody, IgG4, V domains shown)
VH: B1 VH
VL: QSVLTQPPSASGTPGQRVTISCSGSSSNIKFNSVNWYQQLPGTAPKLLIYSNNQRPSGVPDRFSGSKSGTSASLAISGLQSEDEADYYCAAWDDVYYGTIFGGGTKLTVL
notes: also called anti-PD-1 antibody clone G1 (human IgG4)
In turn, B8 returned an EC50 in test [7] of 0.738 nM.

B9: anti-PD-1 antibody clone F2 (Fab) (Fab, V domains shown)
VH: B1 VH
VL: B4 VL with L1Q, P2S, F88Y, A90S, Y95D, Y96A, Y97R
notes: Crude Fab extract in SPR
Consider B9, for which the binding result (in test [1]; with hCTLA4-Fc; in test [2]; with hICOS-Fc; in [3]; in [4]) was “no binding (tested: not given)” each time. Also, the binding result (in the test with mTim3-Fc; in [5]) was “no binding (tested: not given)” in each case. The Kd in test [6] came to 0.11 nM.

B10: anti-PD-1 antibody clone A3 (Fab) (Fab, V domains shown)
VH: B1 VH with E6Q, M109K, V111H
VL: B4 VL with Y95V, Y96L, T99S, I100V
notes: Flown as crude Fab extract in SPR
Take B10: the binding result (in test [1]; with hCTLA4-Fc; in test [2]; in the test with hICOS-Fc; in [3]; in test [4]) was “no binding (tested: not given)” throughout. Besides, the binding result (in the test with mTim3-Fc; in test [5]) was “no binding (tested: not given)” each time. In addition, binding in test [6] was put at a Kd of 0.2 nM.

B11: B6 (antibody, IgG4, V domains shown)
VH: B1 VH with L100Y
VL: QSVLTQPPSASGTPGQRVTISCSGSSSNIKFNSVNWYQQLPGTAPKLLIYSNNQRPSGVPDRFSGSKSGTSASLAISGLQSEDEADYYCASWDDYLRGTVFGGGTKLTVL
notes: also called anti-PD-1 antibody clone B6 (human IgG4)
Molecule B11 showed an EC50 in [7] of 0.158 nM.

B12: D4 (antibody, IgG4, V domains shown)
VH: B1 VH
VL: B4 VL with L1Q, P2S, F88Y, Y96V, Y97R, I100M
notes: also called anti-PD-1 antibody clone D4 (human IgG4)
Molecule B12 returned an EC50 in test [7] of 0.318 nM.

B13: anti-PD-1 antibody clone H9 (Fab) (Fab, V domains shown)
VH: B1 VH
VL: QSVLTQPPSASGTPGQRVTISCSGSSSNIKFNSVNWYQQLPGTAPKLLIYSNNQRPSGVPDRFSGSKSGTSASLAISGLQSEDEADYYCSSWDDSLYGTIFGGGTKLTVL
notes: Crude Fab extract in SPR
For the molecule B13, the binding result (in test [1]; with hCTLA4-Fc; in [2]; with hICOS-Fc; in [3]; in [4]) was “no binding (tested: not given)” each time. Further, the binding result (with mTim3-Fc; in [5]) was “no binding (tested: not given)” in each case.

B14: F2 (antibody, IgG4, V domains shown)
VH: B1 VH
VL: B4 VL with L1Q, P2S, F88Y, A90S, Y95D, Y96A, Y97R
notes: also called anti-PD-1 antibody clone F2 (human IgG4)
Regarding B14, in test [7], it took 0.446 nM to reach a half-maximal effect (EC50).

B15: E1 (antibody, IgG4, V domains shown)
VH: B1 VH
VL: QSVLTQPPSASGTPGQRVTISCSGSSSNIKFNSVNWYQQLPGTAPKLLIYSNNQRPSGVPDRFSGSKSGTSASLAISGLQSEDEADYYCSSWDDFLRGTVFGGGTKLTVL
notes: also called anti-PD-1 antibody clone E1 (human IgG4)
Molecule B15 came in with an EC50 in test [7] of 0.542 nM.
